For experiment [1], the target named is biotinylated recombinant tau (UniProt P10636-6 1-383, limits assumed, biotinylated). Nature of the experiment: competition ELISA: inhibition of biotinylated tau binding to plate-bound low molecular weight heparin. On the procedure: To test the ability of murine and humanized 3D6 variants to interrupt tau interaction with heparin, ELISA plates coated with low molecular weight heparin were first blocked with 2% BSA in PBS for 2h at room temperature. Plates were washed with TBST. After blocking, plates were incubated with biotinylated recombinant tau along with indicated concentrations of unlabeled antibody in 1% BSA/PBS for one hour at room temperature. Plates were again washed, and then incubated with streptavidin-HRP in 0.1% BSA/PBS for 45 min. Plates were then washed and developed with OPD, and absorbance was measured at 490 nm. Inhibition curves were analyzed using a 4-parameter log fit.
Chain of biotinylated recombinant tau (P10636 other isoform, or with tags, fused parts or gaps limits assumed): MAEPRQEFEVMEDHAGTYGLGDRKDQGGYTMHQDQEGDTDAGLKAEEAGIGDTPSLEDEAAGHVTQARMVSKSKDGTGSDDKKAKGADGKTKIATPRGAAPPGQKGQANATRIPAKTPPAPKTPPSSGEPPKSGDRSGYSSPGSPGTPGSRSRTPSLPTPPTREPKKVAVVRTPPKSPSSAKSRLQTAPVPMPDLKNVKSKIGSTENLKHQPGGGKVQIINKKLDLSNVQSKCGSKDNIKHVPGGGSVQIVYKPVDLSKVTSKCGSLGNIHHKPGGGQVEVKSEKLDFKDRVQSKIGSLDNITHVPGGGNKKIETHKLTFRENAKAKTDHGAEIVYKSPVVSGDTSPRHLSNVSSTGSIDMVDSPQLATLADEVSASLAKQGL

A further experiment addresses T1, 369-383 (free C-term) (also: biotinylated, site not given here).
T1 peptide: TLADEVSASLAKQGL-OH
Description: peptide ELISA, biotinylated peptide on streptavidin plate; background-subtracted absorbance; positive from 0.2. How it is done:
(§1) Additional peptides were used to model potential post-translational modifications of the C- and N-terminal ends of the protein.
(§2) Biotinylated peptides were bound to separate wells of a streptavidin-coated ELISA plate. The plate was blocked and treated with murine 3D6, followed by incubation with a horseradish peroxidase-conjugated anti-mouse antibody. After thorough washing, OPD was applied to the plate and allowed to develop. The plate was read at 450 nm absorbance. Background subtraction was performed with absorbance values from wells containing no primary antibody, and a threshold for positive binding was set to 0.2 absorbance units. […] (FIG. 1)

In another experiment the target is T2, 352-366 (also: biotinylated, site not given here).
T2 construct: also called tau peptide 352-366 (4R0N numbering)
T2 peptide: NVSSTGSIDMVDSPQ
The description is as above. On the procedure:
as §1, §2

The next experiment has as its target T3, 145-159 (also: biotinylated, site not given here).
T3 peptide: PGTPGSRSRTPSLPT
The description is as above. On the procedure:
as §1, §2

A further experiment deals with T4, 19-33 (also: biotinylated, site not given here).
T4 construct: also called tau peptide 19-33 (4R0N numbering)
T4 peptide: GLGDRKDQGGYTMHQ
The description is as above. How it is done: as §1, §2

The target in the next experiment is T5, 37-51 (also: biotinylated, site not given here).
T5 construct: also called tau peptide 37-51 (4R0N numbering)
T5 peptide: GDTDAGLKAEEAGIG
Described as above. On the procedure:
as §1, §2

The next experiment concerns the target T6, 10-24 (also: biotinylated (site not given here)).
T6 construct: also called tau peptide 10-24 (4R0N numbering)
T6 peptide: VMEDHAGTYGLGDRK
The experiment is described as above. On the procedure: as §1, §2

In another experiment the target is T7, 298-312 (also: biotinylated, site not given here).
T7 construct: also called tau peptide 298-312 (4R0N numbering)
T7 peptide: SLDNITHVPGGGNKK
The description is as above. How it is done:
as §1, §2

The target in the next experiment is T8, 244-258 (also: biotinylated, site not given here).
T8 peptide: GGGSVQIVYKPVDLS
The experiment is described as above. On the procedure: as §1, §2

For another experiment, the target named is T9, 136-150 (also: biotinylated, site not given here).
T9 construct: also called tau peptide 136-150 (4R0N numbering)
T9 peptide: RSGYSSPGSPGTPGS
The description is as above. How it is done: as §1, §2

The next experiment deals with T10, 118-132 (also: biotinylated, site not given here).
T10 peptide: PPAPKTPPSSGEPPK
The description is as above. On the procedure:
as §1, §2

For the next experiment, the target named is T11, 109-123 (also: biotinylated, site not given here).
T11 construct: also called tau peptide 109-123 (4R0N numbering)
T11 peptide: NATRIPAKTPPAPKT
Described as above. On the procedure:
as §1, §2

The next experiment deals with T12, 181-195 (also: biotinylated, site not given here).
T12 peptide: AKSRLQTAPVPMPDL
The experiment is described as above. On the procedure: as §1, §2

A further experiment deals with T13, 82-96 (also: biotinylated, site not given here).
T13 construct: also called tau peptide 82-96 (4R0N numbering)
T13 peptide: KKAKGADGKTKIATP
The description is as above. How it is done: as §1, §2

For another experiment, the target named is T14, 208-222 (also: biotinylated, site not given here).
T14 construct: also called tau peptide 208-222 (4R0N numbering)
T14 peptide: LKHQPGGGKVQIINK
The experiment is described as above. How it is done: as §1, §2

The target of a further experiment is T15, 307-321 (also: biotinylated, site not given here).
T15 construct: also called tau peptide 307-321 (4R0N numbering)
T15 peptide: GGGNKKIETHKLTFR
The description is as above. How it is done:
as §1, §2

The target in a further experiment is T16, 343-357 (also: biotinylated, site not given here).
T16 construct: also called tau peptide 343-357 (4R0N numbering)
T16 peptide: GDTSPRHLSNVSSTG
The description is as above. On the procedure: as §1, §2

For another experiment, the target named is T17, 235-249 (also: biotinylated, site not given here).
T17 construct: also called tau peptide 235-249 (4R0N numbering)
T17 peptide: SKDNIKHVPGGGSVQ
Described as above. How it is done:
as §1, §2

A further experiment addresses T18, 100-114 (also: biotinylated (site not given here)).
T18 construct: also called tau peptide 100-114 (4R0N numbering)
T18 peptide: APPGQKGQANATRIP
Described as above. How it is done:
as §1, §2

Where no end group is shown, it is not given here.

B1: murine 3D6 monoclonal antibody (antibody, IgG1, V domains shown)
VH: EVQLQQSGADLVRPGALVKLSCKASGFNIKDYYLHWVRQRPEQGLEWIGWIDPENGDTVYDPKFQGKATITADTSSNTAYLQLGSLTSEDTAVYFCSTLDFWGQGTTLTVSS
VL: not shown
notes: Hybridoma-derived mouse antibody; also called m3D6; mouse 3D6
With B1, the IC50 in [1] was found to be 0.409 nM. For the same molecule, the binding result with 369-383 (free C-term), in the experiment with 352-366, in the experiment with 145-159, with 19-33, with 37-51 and with 10-24 was “no binding” throughout. The binding result with 298-312, in the experiment with 244-258, in the experiment with 136-150, in the experiment with 118-132, with 109-123 and with 181-195 was “no binding” each time. Moreover, the binding result with 82-96, with 208-222, in the experiment with 307-321, with 343-357, with 235-249 and with 100-114 was “no binding” throughout.

The values above are taken from US20200369755A1 (PROTHENA BIOSCIENCES, published 2020).
